Among the data in paper PMC9780223 (2022) are Kd values, retold here.

The test addresses purified recombinant PAPP-A free of STC2 (apo PAPP-A) (human, UniProt Q13219 82-1627, fluorescently labeled with Protein Labeling Kit RED-NHS (in MST)). Kind of test: MST; in the presence of IGF2.

B1: IGFBP4 with C-terminal His6 tag (natural protein)
chain: DEAIHCPPCSEEKLARCRPPVGCEELVREPGCGCCATCALGLGMPCGVYTPRCGSGLRCYPPRGVEKPLHTLMHGQGVCMELAEIEAIQESLQPSDKDEGDHPNNSFSPCSAHDRRCLQKHFAKIRDRSTSGGKMKVNGAPREDARPVPQGSCQSELHRALERLAASQSRTHEDLYIIPIPNCDRNGNFHPKQCHPALDGQRGKCWCVDRKTGVKLPGGLEPKGELDCHQLADSFRE
Take B1: the Kd is roughly 160 nM.

A word on the Kd: it is the free concentration of one partner at which half of the binding sites on the other are occupied at equilibrium, for simple one-to-one binding.
